According to patent publication US20200317768A1 (published 2020):

T1: cynomolgus monkey FcγRIIa3 extracellular domain, His-tagged (cynomolgus monkey)
T1 construct: also called cyno FcgRIIa3; cynoFcγRIIa3; not shown: His-tag added to the C-terminus
T1 chain: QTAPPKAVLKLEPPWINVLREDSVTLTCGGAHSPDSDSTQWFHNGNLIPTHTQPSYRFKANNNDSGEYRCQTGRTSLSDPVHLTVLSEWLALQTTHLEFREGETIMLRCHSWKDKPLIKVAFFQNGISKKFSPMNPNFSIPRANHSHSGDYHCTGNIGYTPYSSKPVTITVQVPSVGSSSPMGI

T2: cynomolgus monkey FcγRIIa2 extracellular domain, His-tagged (cynomolgus monkey)
T2 construct: also called cyno FcgRIIa2; cynoFcγRIIa2; not shown: His-tag added to the C-terminus
T2 chain: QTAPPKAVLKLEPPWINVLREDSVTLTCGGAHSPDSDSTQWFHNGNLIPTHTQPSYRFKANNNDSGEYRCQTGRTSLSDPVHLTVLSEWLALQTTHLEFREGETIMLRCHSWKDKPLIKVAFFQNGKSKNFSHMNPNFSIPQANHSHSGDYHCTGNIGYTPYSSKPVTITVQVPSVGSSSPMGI

T3: cynomolgus monkey FcγRIIb extracellular domain, His-tagged (cynomolgus monkey)
T3 construct: also called cyno FcgRIIb; cynoFcγRIIb; not shown: His-tag added to the C-terminus
T3 chain: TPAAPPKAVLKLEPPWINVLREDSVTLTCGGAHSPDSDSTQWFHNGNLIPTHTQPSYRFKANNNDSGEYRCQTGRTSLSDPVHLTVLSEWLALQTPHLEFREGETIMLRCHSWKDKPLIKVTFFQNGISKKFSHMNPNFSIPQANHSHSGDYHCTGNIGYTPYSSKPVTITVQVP

T4: cynomolgus monkey FcγRIIa1 extracellular domain, His-tagged (cynomolgus monkey)
T4 construct: also called cyno FcgRIIa1; cynoFcγRIIa1; not shown: His-tag added to the C-terminus
T4 chain: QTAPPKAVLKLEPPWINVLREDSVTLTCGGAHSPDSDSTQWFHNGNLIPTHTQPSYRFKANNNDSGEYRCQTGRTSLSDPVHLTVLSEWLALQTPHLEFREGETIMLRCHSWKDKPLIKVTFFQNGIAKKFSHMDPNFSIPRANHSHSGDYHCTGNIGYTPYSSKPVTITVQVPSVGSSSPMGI

T5: human FcγRIIb extracellular domain, His-tagged (human, UniProt P31994 43-217)
T5 construct: also called human FcgRIIb; not shown: His-tag added to the C-terminus
T5 sequence: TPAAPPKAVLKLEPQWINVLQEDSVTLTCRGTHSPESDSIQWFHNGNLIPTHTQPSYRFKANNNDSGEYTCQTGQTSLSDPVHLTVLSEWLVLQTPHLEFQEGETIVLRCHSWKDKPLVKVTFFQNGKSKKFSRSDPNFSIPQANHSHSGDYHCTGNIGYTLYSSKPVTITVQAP

T6: cynomolgus monkey FcγRIIa3 extracellular domain, C-terminal His-tag (cynomolgus monkey)
T6 construct: also called cyno FcγRIIa3; cynoFcgRIIa3; not shown: His-tag added to C-terminus
T6 chain: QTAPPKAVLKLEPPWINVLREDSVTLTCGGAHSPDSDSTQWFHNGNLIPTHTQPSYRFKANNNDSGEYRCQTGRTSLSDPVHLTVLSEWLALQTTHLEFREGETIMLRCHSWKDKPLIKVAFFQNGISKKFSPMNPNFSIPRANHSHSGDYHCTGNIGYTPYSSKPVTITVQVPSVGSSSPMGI

T7: cynomolgus monkey FcγRIIa2 extracellular domain, C-terminal His-tag (cynomolgus monkey)
T7 construct: also called cyno FcγRIIa2; cynoFcgRIIa2; not shown: His-tag added to C-terminus
T7 chain: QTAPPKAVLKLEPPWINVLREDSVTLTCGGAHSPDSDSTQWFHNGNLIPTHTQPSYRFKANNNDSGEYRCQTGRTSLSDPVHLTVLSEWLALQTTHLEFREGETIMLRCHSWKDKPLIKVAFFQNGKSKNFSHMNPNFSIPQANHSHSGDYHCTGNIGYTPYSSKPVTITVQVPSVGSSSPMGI

T8: cynomolgus monkey FcγRIIb extracellular domain, C-terminal His-tag (cynomolgus monkey)
T8 construct: also called cyno FcγRIIb; cynoFcγRIIb; not shown: His-tag added to C-terminus
T8 chain: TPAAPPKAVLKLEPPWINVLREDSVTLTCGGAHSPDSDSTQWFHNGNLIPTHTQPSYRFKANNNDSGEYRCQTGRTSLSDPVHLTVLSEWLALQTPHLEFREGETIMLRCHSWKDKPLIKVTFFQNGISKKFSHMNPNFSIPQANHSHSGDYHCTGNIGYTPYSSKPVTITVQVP


Experiments:
[1] = target: T1, cynomolgus monkey FcγRIIa3 …; test: SPR (BIACORE), antibody captured, FcγR as analyte, 25°C
Experimental: (§1) The kinetic analysis of interactions between these antibodies and FcγR was carried out using BIACORE® T200 or BIACORE® 4000 (GE Healthcare). HBS-EP+ (GE Healthcare) was used as the running buffer, and the measurement temperature was set to 25° C. A chip produced by immobilizing Protein A. Protein A/G or mouse anti-human IgG kappa light chain (BD Biosciences) onto a Series S Sensor Chip CM4 or CM5 (GE Healthcare) by the amine-coupling method was used. […] After the measurement, the antibody captured on the chip was washed off by allowing reaction with 10 mM glycine-HCl, pH1.5 and 25 mM NaOH so that the chip was regenerated and used repeatedly. The sensorgrams obtained as measurement results were analyzed by the 1:1 Langmuir binding model using the BIACORE® Evaluation Software to calculate the binding rate constant ka (L/mol/s) and dissociation rate constant kd (l/s), and the dissociation constant KD (mol/L) was calculated from these values. […] Regarding such interactions, KD values were calculated using the following 1:1 binding model described in BIACORE® T100 Software Handbook BR1006-48 Edition AE.
(§2) The behavior of interacting molecules according to the 1:1 binding model on BIACORE® can be described by Equation 1: Req=C·R max/(KD+C)+RI, wherein, Req is a plot of steady-state binding levels to analyte concentration. C is concentration, RI is bulk refractive index contribution in the sample, and Rmax is analyte binding capacity of the surface. When this equation is rearranged, KD can be expressed as Equation 2: KD=C·Rmax/(Req−RI)−C. KD can be calculated by substituting the values of Rmax, RI, and C into Equation 1 or Equation 2. From the current measurement conditions, RI=0, C=2 μmol/L can be used.

[2] = target: T2, cynomolgus monkey FcγRIIa2 …; test: as above
Experimental: as §1, §2

[3] = target: T3, cynomolgus monkey FcγRIIb extracellular …; test: as above
Experimental: as §1, §2

[4] = target: T4, cynomolgus monkey FcγRIIa1 …; test: as above
Experimental: as §1, §2

[5] = target: T9, human FcγRIIIaV extracellular domain, His-tagged (human, UniProt P08637 17-208); test: as above
T9 construct: also called human FcgRIIIaV; not shown: His-tag added to the C-terminus
Experimental: as §1, §2

[6] = target: T5, human FcγRIIb extracellular domain, …; test: as above
Experimental: as §1, §2

[7] = target: T10, cynomolgus monkey FcγRIIIaS extracellular domain, His-tagged (cynomolgus monkey, UniProt A3RFZ7 21-206 (rhesus entry)); test: as above
T10 construct: also called cyno FcgRIIIaS; cynoFcγRIIIaS; not shown: His-tag added to the C-terminus
Experimental: as §1, §2

[8] = target: T6, cynomolgus monkey FcγRIIa3 …; test: SPR (BIACORE), antibody captured, FcγR analyte
Experimental: as §1, §2

[9] = target: T7, cynomolgus monkey FcγRIIa2 …; test: SPR (BIACORE), antibody captured, FcγR analyte
Experimental: as §1, §2

[10] = target: T11, human FcγRIIIaV extracellular domain, C-terminal His-tag (human, UniProt P08637 17-208); test: SPR (BIACORE), antibody captured, FcγR analyte
T11 construct: also called FcgRIIIaV; not shown: His-tag added to C-terminus
Experimental: as §1, §2

[11] = target: T8, cynomolgus monkey FcγRIIb extracellular …; test: SPR (BIACORE), antibody captured, FcγR analyte
Experimental: as §1, §2

T11 sequence (P08637 17-208 F176V): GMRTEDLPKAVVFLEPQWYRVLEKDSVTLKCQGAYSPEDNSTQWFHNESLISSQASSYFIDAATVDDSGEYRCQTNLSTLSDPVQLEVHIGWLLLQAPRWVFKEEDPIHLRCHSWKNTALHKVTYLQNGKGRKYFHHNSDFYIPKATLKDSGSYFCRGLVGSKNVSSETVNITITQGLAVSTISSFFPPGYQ
T9 sequence (P08637 17-208 F176V): as above

Kd [1]	Kd [2]	Kd [3]	Kd [4]	Kd [5]	Kd [6]	Kd [7]	Kd [8]	Kd [9]	Kd [10]	Kd [11]	Binder
7300 nM	3000 nM	1000 nM	3200 nM	2300 nM	3500 nM	780 nM					M103205H795-MY263/M103202L889-SK1 (antibody, human IgG1, kappa, copies: 2 + 2) heavy: QVTLKESGPVLVKPTETLTLTCTVSGIDLSHDDISWVRQAPGKGLEWVGIISYAGSTYYASWAKGRLTISKDTSKNQVVLTMTNMDPVDTATYYCARGVPAYSHGGDLWGQGTLVTVSSASTKGPSVFPLAPSSKSTSGGTAALGCLVKDYFPEPVTVSWNSGALTSGVHTFPAVLQSSGLYSLSSVVTVPSSSLGTQTYICNVNHKPSNTKVDKKVEPKSCDKTHTCPPCPAPELLQGPSVFLFPPKPKDTLMISRTPEVTCVVVDVSDEDPEVKFNWYVDGVEVHNAKTKPREEQYNSTYRVVSVLTVLHQDWLNGKEYKCKVSNKALPKPIEKTISKAKGQPREPQVYTLPPSREEMTKNQVSLTCLVKGFYPSDIAVEWESNGQPENNYKTTPPVLDSDGSFFLYSKLTVDKSRWQQGNVFSCSVMHEALHNHYTQKSLSLSP light: DIVMTQSPATLSLSPGERATLSCTSSQSVYHANWLSWFQQKPGQPPKLLIYWASTLAYGVPSRFSGSGSGTDFTLTISSLQPEDAATYYCAGGYGGGRYAFGQGTKVEIKRTVAAPSVFIFPPSDEQLKSGTASVVCLLNNFYPREAKVQWKVDNALQSGNSQESVTEQDSKDSTYSLSSTLTLSKADYEKHKVYACEVTHQGLSSPVTKSFNRGEC
							1700 nM	5100 nM	810 nM	1800 nM	MS_M103205H795-SG1/M103202L889-SK1 (antibody, human IgG1, kappa, Parent antibody with SG1 human heavy chain constant region; also called MS1032LO06-SG1) heavy: not shown light: DIVMTQSPATLSLSPGERATLSCTSSQSVYHANWLSWFQQKPGQPPKLLIYWASTLAYGVPSRFSGSGSGTDFTLTISSLQPEDAATYYCAGGYGGGRYAFGQGTKVEIKRTVAAPSVFIFPPSDEQLKSGTASVVCLLNNFYPREAKVQWKVDNALQSGNSQESVTEQDSKDSTYSLSSTLTLSKADYEKHKVYACEVTHQGLSSPVTKSFNRGEC
